One assay has as its target MARV Angola GPe[change] (Marburg virus, Angola strain, UniProt Q1PD50 19-636). In words: cross reactivity with GPeΔmuc, summary table.
The target in the next assay is MARV Musoke GPe[change] (Marburg virus, Musoke strain, UniProt P35253 19-636). Nature of the assay: cross reactivity with GPeΔmuc, summary table.

B1: CAN54G2 (antibody, V domains shown)
VH: QVQLQQSGTELVRPGTSVKISCKASGYDFTNFWLGWIKQRPGHGLEWIGDIYPGGDNTYYNEKFKGKVTLTADKSSNTAYMQFSSLTSEDSAVYFCFMILYTLDYWGQGTSVTVSS
VL: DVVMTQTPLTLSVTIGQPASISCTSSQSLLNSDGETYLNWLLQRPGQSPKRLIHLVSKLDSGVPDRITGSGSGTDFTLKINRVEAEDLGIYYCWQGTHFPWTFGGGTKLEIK
Regarding B1, the binding result with MARV Angola GPe[change] and in the assay with MARV Musoke GPe[change] was “binds” in each case.

B2: CAN40G1 (antibody, V domains shown)
VH: EVQLQQSGPELVKPGASVKISCRTSGYTFTEYTIHWVKQSRGKSLEWIGGINPNHGGTLYNQKFKVKATLTVDKSSSTAYMELRSLTSEDSAVYYCARFTYDYWGQGTTLTVSS
VL: DIVLTQSPASLAVSLGQRASISCKASQSVDHDGDSYMNWYQQKPGQPPKLLIYATSNLESGIPARFSGSGSGTDFTLNIHPVEEEDAATYYCQQSYEVPLTFGAGTKLELK
With B2, the binding result with MARV Angola GPe[change] and with MARV Musoke GPe[change] was “binds” in each case.

B3: CAN30G1 (antibody, V domains shown)
VH: QIQLVQSGPELKKPGETVKISCKASGYTFTNYGMNWVKQAPGKGLKWMGWINTYTGKPTYVDDFKGRFAFSLETSANTAYLQINNLKNEDTATYFCESGGYDEDYWGQGTTLTVSS
VL: ENVLTQSPAIMSASPGEKVTMTCSASSSVTYMHWYQQKSSTSPKLWIYDTSKLASGVPGRFSGSGSGNSYSLTISSMEAEDVATYYCFQGSGYPYTFGGGTKLEIK
Regarding B3, the binding result with MARV Angola GPe[change] and in the assay with MARV Musoke GPe[change] was “binds” in each case.

B4: CAN30G3 (antibody, V domains shown)
VH: QVQLKESGPGLVAPSQSLSITCTVSGFSLTDYGITWIRQPPGKGLEWLGVIWGGGSAYYNLVLKSRLSISKDNSKSQVFLKMNSLQTDDTAMYYCAKHRTLITTAMDYWGQGISVTVSS
VL: DVLMTQTPLSLPVSLGDQASISCRSSQNIVHSNGNTYLEWYLQKSGQSPKLLIYKVSNRFSGVPDRFSGSGSGTDFTLKISRVEAEDLGVYYCFQGSHFPWTFGGGTKLEIK
Take B4: the binding result with MARV Angola GPe[change] and in the assay with MARV Musoke GPe[change] was “binds” in each case.

B5: CAN30G4 (antibody, V domains shown)
VH: EVKLVESGGGLVKSGGSLKLSCAVSGFTFSTYAMSWVRQIPEKRLEWVATISNGGSYIYYSDSVKGRFTISRDNAKNTLYLQMSSLRSEDTAMYYCARHRESYRYDWFAYWGQGTLVTVSA
VL: DVLMTQTPLSLPVSLGDQASISCRSSQNIVHSDGNTYLEWYLQKPGQSPKLLIYKFSNRFSGVPDRFSGSGSGTDFTLKISRVEAEDLGVYYCFQGSHVPPTFGAGTKLELK
As to B5, the binding result with MARV Angola GPe[change] and in the assay with MARV Musoke GPe[change] was “binds” each time.

B6: CAN30G5 (antibody, V domains shown)
VH: EVQLVESGGGLVQPKGSLKLSCAASGFAFNSYAMHWVCQAPGKGLEWVARIRIKSGNYATSYAGSVTDRFTVSRDDSQNLFYLQMNNLKTEDTAMYYCVREWEGAMDYWGQGTSVTVSS
VL: DIVLTQSPLSLPVSLGDQASISCRSSQSLVHSNGNTYLHWYLQKPGQSPNLLIYKVSNRFSGVPDRFSGSGSGTDFTLKISRVEAEDLGVYFCSQSTHVPWTFGGGTKLEIK
Consider B6, for which the binding result with MARV Angola GPe[change] and with MARV Musoke GPe[change] was “binds” throughout.

The values above are taken from US20170065702A1 (CANGENE, published 2017).
